Patent US20190224274, “MIF INHIBITORS AND METHODS OF USE THEREOF” (The Johns Hopkins University, published 2019)

Experiments:
[1] = target: T1, MIF (Homo sapiens, UniProt P14174 P14174:1-115); test: EMSA; 10 mM Mg2+; conditions: tags: GST tag removed (pGex-6P-1); chain copies: 3 (inferred, trimer by FPLC); label: 5' biotin
T1 sequence: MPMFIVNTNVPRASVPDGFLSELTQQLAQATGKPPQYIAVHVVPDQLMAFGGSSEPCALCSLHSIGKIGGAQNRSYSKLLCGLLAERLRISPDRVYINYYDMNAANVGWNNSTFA
Procedure: In parallel with the ssDNA studies, MIF was tested to see if it binds to dsDNA using PS³⁰, poly A, PS³⁰ sequence-related substrates (5′bPS³⁰, 5′bSL, 5′bLF, 5′bRF, 5′bPA³⁰, and 5′bPASE) as well as non-related sequences (PCS and 5′bL3) (FIG. 3B and FIG. 19).
(§1) EMSA assay was performed using LightShift Chemiluminescent EMSA kit (Thermo Scientific) following the manufactures instruction. Briefly, purified MIF protein (2 μM) was incubated with biotin-labeled DNA substrates (10 nM) in the binding buffer containing 10 mM MgCl₂ for […] on ice. Then samples were separated on 6% retardation polyacrylamide followed by electrophoretic transfer to nylon membrane.

[2] = target: T1, MIF; test: EMSA; 10 mM Mg2+; no obvious effect vs PS30; conditions: tags: GST tag removed (pGex-6P-1); chain copies: 3 (inferred, trimer by FPLC); label: 5' biotin; stem loop, no 3' unpaired bases
Procedure: 5′ biotin labeled ssPS³⁰ and its sequence-related substrates with different structures by removing unpaired bases at the 5′ end, 3′ end, both 5′ and 3′ ends or eliminating the stem loop were used in the EMSA (FIG. 3B, and FIG. 19).
EMSA assay was performed using LightShift Chemiluminescent EMSA kit (Thermo Scientific) following the manufactures instruction. Briefly, purified MIF protein (2 μM) was incubated with biotin-labeled DNA substrates (10 nM) in the binding buffer containing 10 mM MgCl₂ for 30 mM on ice. Then samples were separated on 6% retardation polyacrylamide followed by electrophoretic transfer to nylon membrane. Then, Biotin-labeled DNA is further detected by chemiluminescence using Chemiluminescent Nucleic Acid Detection Module (Thermo Scientific).

[3] = target: T2, MIF D17A (Homo sapiens, UniProt P14174 P14174:1-115, D17A); test: EMSA; 10 mM Mg2+; text prints P17A; conditions: tags: GST tag removed; chain copies: 3; label: 5' biotin; stem loop with unpaired 5' and 3' bases
T2 sequence: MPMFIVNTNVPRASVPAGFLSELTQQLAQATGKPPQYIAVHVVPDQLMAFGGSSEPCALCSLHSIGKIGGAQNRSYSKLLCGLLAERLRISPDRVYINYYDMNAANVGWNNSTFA
Procedure: (§2) Both single stranded and double stranded forms of two classes of MIF DNA binding motifs were examined for MIF binding and cleavage specificity. The ssPS³⁰ sequence was synthesized with a 5′ biotin label and subjected to an electrophoretic mobility shift assay (EMSA) (FIG. 18C).
as §1

[4] = target: T3, MIF P16A (Homo sapiens, UniProt P14174 P14174:1-115, P16A); test: EMSA; 10 mM Mg2+; conditions: tags: GST tag removed; chain copies: 3; label: 5' biotin; stem loop with unpaired 5' and 3' bases
T3 sequence: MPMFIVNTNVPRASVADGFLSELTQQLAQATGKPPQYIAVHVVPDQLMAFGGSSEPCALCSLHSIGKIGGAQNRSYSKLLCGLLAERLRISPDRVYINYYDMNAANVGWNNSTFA
Procedure: as §2, §1

[5] = target: T4, MIF E22A (Homo sapiens, UniProt P14174 P14174:1-115, E22A); test: EMSA; 10 mM Mg2+; conditions: tags: GST tag removed; chain copies: 3 (inferred); label: 5' biotin; stem loop with unpaired 5' and 3' bases
T4 sequence: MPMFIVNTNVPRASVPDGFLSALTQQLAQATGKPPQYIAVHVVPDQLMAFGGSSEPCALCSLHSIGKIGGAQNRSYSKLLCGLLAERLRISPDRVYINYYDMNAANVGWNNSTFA
Procedure: as §2, §1

[6] = target: T5, MIF E22Q (Homo sapiens, UniProt P14174 P14174:1-115, E22Q); test: EMSA; 10 mM Mg2+; conditions: tags: GST tag removed; chain copies: 3 (inferred); label: 5' biotin; stem loop with unpaired 5' and 3' bases
T5 sequence: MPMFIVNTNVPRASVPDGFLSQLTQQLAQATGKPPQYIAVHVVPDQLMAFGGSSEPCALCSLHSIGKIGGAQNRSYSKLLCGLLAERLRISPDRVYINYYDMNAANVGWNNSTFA
Procedure: as §2, §1

[7] = target: T6, MIF D17Q (Homo sapiens, UniProt P14174 P14174:1-115, D17Q); test: EMSA; 10 mM Mg2+; text prints P17Q; conditions: tags: GST tag removed; chain copies: 3; label: 5' biotin; stem loop with unpaired 5' and 3' bases
T6 sequence: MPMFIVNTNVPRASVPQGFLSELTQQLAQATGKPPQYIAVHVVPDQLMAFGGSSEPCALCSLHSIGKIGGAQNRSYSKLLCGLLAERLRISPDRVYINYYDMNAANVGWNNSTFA
Procedure: as §2, §1

[8] = target: T1, MIF; test: EMSA; 10 mM Mg2+; conditions: tags: GST tag removed (pGex-6P-1); chain copies: 3 (inferred, trimer by FPLC); label: 5' biotin; stem loop, 1 unpaired 3' base

B1: dsPA30 (dsDNA)
DNA 1: AAAAAAAAAAAAAAAAAAAAAAAAAAAAAA
DNA 2: TTTTTTTTTTTTTTTTTTTTTTTTTTTTTT
- binding result [1]: no binding

B2: dsLF (dsDNA)
DNA 1: AAAAAAACTCAGCCTCCCAAGTAGCTGGGA
DNA 2: TCCCAGCTACTTGGGAGGCTGAGTTTTTTT
- binding result [1]: no binding

B3: dsSL (dsDNA)
DNA 1: CCTGTAATCCCAAGTAGCTGGGATTACAGG
DNA 2: CCTGTAATCCCAGCTACTTGGGATTACAGG
- binding result [1]: no binding

Binder: AAAAAAACTCAGCCTCCCAAGTAGCTGGGA (ssDNA) [LF]
- binding result [2]: binds

B4: dsRF (dsDNA)
DNA 1: TCCCAAGTAGCTGGGATTACAGGAAAAAAA
DNA 2: TTTTTTTCCTGTAATCCCAGCTACTTGGGA
- binding result [1]: no binding

Binder: CTCAGCCTCCCAAGTAGCTGGGATTACAGG (ssDNA) [PS30]
- binding result [3]: binds
- binding result [4]: binds
- binding result [5]: binds
- binding result [6]: binds
- binding result [7]: binds

B5: dsPS30 (dsDNA)
DNA 1: CTCAGCCTCCCAAGTAGCTGGGATTACAGG
DNA 2: CCTGTAATCCCAGCTACTTGGGAGGCTGAG
- binding result [1]: no binding

Binder: AAAAAAAAAACAAGTAGCTGGGATTACAGG (ssDNA) [3F1]
- binding result [8]: binds

B6: dsL3 (dsDNA)
DNA 1: ACCTAAATGCTAGAGCTCGCTGATCAGCCT
DNA 2: AGGCTGATCAGCGAGCTCTAGCATTTAGGT
- binding result [1]: no binding
